Experimental data: patent US20150203579A1 (Regeneron, published 2015)
Read-outs that look alike come from different tables or passages of the source.

B1: H2aM7796N (antibody, V domains shown)
VH: QVQLVESGGGVVQPGRSLRLSCAASGFTFSSYGMHWVRQAPGKGLEWVAIIWSDGDSEYNLDSVKGRFTISRDNSKNTLYLQMNSLRVEDSAVYYCARDRDLEDIWGQGTMVTVSS
VL: DIQMTQSPSSLSASVGDRVTITCRASQGIRNDLGWYQQKPGKAPKRLIYAASNLQSGVPSRFSGSGSGTEFTLTISSLQPEDFATYYCLQHNSYPLTFGGGTKVEIK
notes: human variable regions, mouse IgG2a Fc; also called H2M7796N
B2: H4H9008P (antibody, human IgG4 S228P, kappa, V domains shown)
VH: EVQLVESGGGLVRPGGSLRLSCAASGFTFSTYAMAWVRQTPGKGLEGVSAIGGSGDSTYYVDSVKGRFTISRDNSKSTLFLQMNSLRAEDTAVYYCVKVRNYDGSFDIWGQGTMVTVSS
VL: not shown
B3: H2aM7798N (antibody, V domains shown)
VH: EVQLLESGGVLVQPGGSLRLSCAASGFTFSNFGMTWVRQAPGKGLEWVSGISGGGRDTYFADSVKGRFTISRDNSKNTLYLQMNSLKGEDTAVYYCVKWGNIYFDYWGQGTLVTVSS
VL: DIQMTQSPSSLSASVGDSITITCRASLSINTFLNWYQQKPGKAPNLLIYAASSLHGGVPSRFSGSGSGTDFTLTIRTLQPEDFATYYCQQSSNTPFTFGPGTVVDFR
notes: human variable regions, mouse IgG2a Fc; also called H2M7798N
B4: H4xH9035P (antibody, V domains shown)
VH: EVQLVESGGRVVRPGGSLRLSCAASGFTFDDYGMSWVRQLPGKGLEWVAGISWNDGKTVYAESVKGRFIISRDNAKNSLHLEMNSLRAEDTALYYCARDWQYLIDRYFDFWGQGTLVTVSS
VL: not shown
notes: human IgG4 Fc with 2 or more amino acid changes (US20100331527); also called H4xH9035P2
B5: H4xH9048P2 (antibody, V domains shown)
VH: QVQLVQSGAEVKRPGSSVKVSCKVSGVTFRNFAIIWVRQAPGQGLEWMGGIIPFFSAANYAQSFQGRVTITPDESTSTAFMELASLRSEDTAVYYCAREGERGHTYGFDYWGQGTLVTVSS
VL: not shown
notes: human IgG4 Fc with 2 or more amino acid changes (US20100331527)
B6: H4H9048P2 (antibody, human IgG4 S228P, kappa, V domains shown)
VH: B5 VH
VL: not shown
notes: human IgG4 Fc
B7: H4xH9119P2 (antibody, human IgG4, V domains shown)
VH: EVQLVESGGGLVQPGRSLRLSCAASGFTFEDYAMHWVRQAPGKGLEWVSGIGWSNVKIGYADSVKGRFTISRDNVRNSLYLQMNSLRTEDTAFYYCVKAYTSMLTLYFDYWGQGTLVTVSS
VL: not shown
notes: H4xH: modified human IgG4 Fc
B8: H4xH9119P2 (antibody, V domains shown)
VH: B7 VH
VL: not shown
notes: as for B5

Columns and labels:
[1] = molecular target: T1, full length human PD-1 on HEK293/hPD-1 cells (human, UniProt Q15116 25-288); test: FACS, 100 nM mAb
[2] = molecular target: T2, PD-1 chimera: extracellular domain of human PD-1 with trans-membrane and cytoplasmic domains of human CD300a, … (human, UniProt Q9UGN4 181-299, limits assumed); test: cell-based or functional assay
[3] = molecular target: T1, full length human PD-1 on HEK293/hPD-1 …; test: FACS, 100 nM mAb, HEK293/hPD-1 cells;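 also: antibodies incubated with cells for 15-30 min on ice, bound antibody detected through a secondary F(ab′)2 by flow cytometry, with parental HEK293 cells tested in parallel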
[4] = molecular target: T1, full length human PD-1 on HEK293/hPD-1 …; test: FACS dose response, HEK293/hPD-1 cells
[5] = molecular target: T3, dimeric biotinylated human PD-1 protein with a C-terminal human Fc tag (human, biotinylated (sites not given)); test: competition ELISA: 200 pM biot-hPD-1-hFc to coated hPD-L1-mFc
T3 construct: also called biot-hPD-1-hFc

[6] = molecular target: T4, recombinant human PD-1 dimer expressed with a C-terminal mouse IgG2a Fc tag (human); test: BLI Octet: 100 nM hPD-1-mFc + 500 nM mAb to captured hPD-L1-hFc
T4 construct: also called hPD-1-mFc

[7] = molecular target: PD-1 chimera: extracellular domain of human PD-1 with trans-membrane and cytoplasmic domains of human CD300a, … (human, UniProt Q9UGN4 181-299, limits assumed); test: cell-based or functional assay; remark: listed apart in the source
[8] = molecular target: T1, full length human PD-1 on HEK293/hPD-1 …; test: FACS dose response, HEK293/hPD-1 cells; remark: listed apart in the source
[9] = molecular target: T4, recombinant human PD-1 dimer expressed …; test: competition ELISA: 1.5 nM hPD-1-mFc to coated hPD-L1-hFc
[10] = molecular target: T4, recombinant human PD-1 dimer expressed …; test: competition ELISA: 100 pM hPD-1-mFc to coated hPD-L2-hFc
[11] = molecular target: T4, recombinant human PD-1 dimer expressed …; test: competition ELISA: 1.5 nM hPD-1-mFc to coated hPD-L1-hFc; * below theoretical bottom 7.5E-10 M
[12] = molecular target: T3, dimeric biotinylated human PD-1 protein …; test: competition ELISA: 200 pM biot-hPD-1-hFc to coated hPD-L1-mFc; * below theoretical bottom 1.0E-10 M
monkey PD-1 with mFc [13] = molecular target: T5, monkey PD-1 with mFc (monkey); test: SPR, captured mAb, 25 C;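 also: purified anti-PD-1 antibodies tested on Biacore 4000 or T200 instruments, rate constants obtained via 1:1 binding model fit, with KD as kd/ka and half-life as ln2/(60·kd)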
T5 construct: also called monkey PD-1-mFc; monkey PD-1 dimer
T5 chain: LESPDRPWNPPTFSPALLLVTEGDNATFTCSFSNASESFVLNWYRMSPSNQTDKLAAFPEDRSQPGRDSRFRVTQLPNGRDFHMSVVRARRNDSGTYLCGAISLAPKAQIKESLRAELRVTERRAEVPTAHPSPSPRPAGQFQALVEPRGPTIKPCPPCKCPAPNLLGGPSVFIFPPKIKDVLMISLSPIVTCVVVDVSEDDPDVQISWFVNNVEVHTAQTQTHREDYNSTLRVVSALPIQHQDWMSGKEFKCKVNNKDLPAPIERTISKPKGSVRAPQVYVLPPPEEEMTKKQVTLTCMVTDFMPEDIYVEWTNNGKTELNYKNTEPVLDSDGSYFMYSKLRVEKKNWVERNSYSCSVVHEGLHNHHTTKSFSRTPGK

monkey PD-1 with mFc [14] = molecular target: T5, monkey PD-1 with mFc; test: SPR, captured mAb, 37 C;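 also: Real-time Biacore surface plasmon resonance biosensor readout of PD-1 reagent binding to purified anti-PD-1 monoclonal antibodies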
[15] = molecular target: T6, recombinant human PD-1 expressed with a C-terminal human IgG1 Fc tag (human); test: SPR Biacore 3000: 100 nM hPD-1.hFc + 500 nM mAb to captured hPD-L1.mFc;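 also: inhibition study with anti-PD-1 mAbs, SPR responses tracked in real time and read at the close of each step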
T6 construct: also called hPD-1-hFc; hPD1-hFc

[16] = molecular target: T7, recombinant human PD-L1 expressed with a C-terminal mouse IgG2a Fc tag (human); test: SPR Biacore 3000: 500 nM mAb alone (no hPD-1.hFc) over captured hPD-L1.mFc surface, control
T7 construct: also called hPD-L1-mFc; hPD-L1.mFc

[17] = molecular target: T2, PD-1 chimera: extracellular domain of …; test: cell-based or functional assay; remark: listed apart in the source
[18] = molecular target: T8, recombinant human PD-1 expressed with a C-terminal myc-myc-hexahistidine tag (human); test: SPR (Biacore), mAb captured, hPD-1-MMH injected, 25 C;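 also: rate constants obtained by fitting sensorgrams to a 1:1 binding model, KD derived as kd/ka and half-life as ln2/(60·kd) in minutes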
T8 construct: also called hPD-1-MMH; human PD-1-MMH

Binder | ratio of MFI HEK293/hPD-1 to HEK293 parental cells [1] | Emax mean [%] @ 100 nM [2] [%] | MFI [3] [MFI] | % blocking at 50 nM antibody [5] [%] | Concentration (M) of Antibody at 150% activation [2] [M] | EC50 [8] [nM] | Max Geom. Mean MFI @ 100 nM [8] [MFI] | % blocking at 200 nM antibody [9] [%] | IC50 [11] [nM] | IC50 [12] [nM] | 100 nM Monkey PD-1-mFc Bound (RU) (monkey PD-1 with mFc [13]) | Kd (monkey PD-1 with mFc [13]) [nM] | koff (monkey PD-1 with mFc [13]) [s⁻¹] | kon (monkey PD-1 with mFc [13]) [M⁻¹ s⁻¹] | t1/2 (monkey PD-1 with mFc [13]) [min] | 100 nM Monkey PD-1-mFc Bound (RU) (monkey PD-1 with mFc [14]) | Kd (monkey PD-1 with mFc [14]) [nM] | koff (monkey PD-1 with mFc [14]) [s⁻¹] | kon (monkey PD-1 with mFc [14]) [M⁻¹ s⁻¹] | t1/2 (monkey PD-1 with mFc [14]) [min] | also measured
B1 | 168 | 121 | 49800 | 60 | – | – | – | – | – | – | – | – | – | – | – | – | – | – | – | – | EC50 [4]: 4.81 nM; Max Geom. Mean MFI @ 100 nM [4]: 14100 MFI; IC50 [5]: 1.3 nM; % Blocking [6]: 129%; binding of the mixture (nm) [6]: -0.02 nm
B2 | – | – | – | – | – | – | – | – | – | – | – | – | – | – | – | – | – | – | – | – | Emax, AP1-Luc signal at 100 nM antibody (% of signal without anti-PD-1 antibody) [7]: 150%
B3 | 78.1 | 239 | 23400 | 100 | 7.99e-10 | 0.0698 | 20900 | 93 | 0.68 | 0.073 | – | – | – | – | – | – | – | – | – | – | % blocking at 100 nM antibody [10]: 100%; IC50 [10]: 0.13 nM; % Blocking [6]: 86%; binding of the mixture (nm) [6]: 0.01 nm
B4 | 91.7 | 227 | 9920 | 95 | 1.2e-09 | 0.115 | 28700 | 99 | 0.62 | 0.08 | 78 | 0.46 | 9.96e-05 | 216000 | 116 | 40 | 1.7 | 0.000623 | 367000 | 19 | % Blocking [15]: 104%; binding of the mixture (RU) [15]: -4 RU; 500 nM of anti-PD-1 monoclonal antibody (RU) [16]: -3 RU
B5 | 70.8 | 138 | 7200 | – | – | 0.668 | 33700 | 67 | – | – | 115 | 0.754 | 0.000184 | 243000 | 63 | 84 | 2.29 | 0.00113 | 494000 | 10 | IC50 [9]: 3.3 nM; % blocking at 100 nM antibody [10]: 98%; IC50 [10]: 0.14 nM
B6 | – | – | – | – | – | – | – | – | – | – | – | – | – | – | – | – | – | – | – | – | Emax mean [%] @ 100 nM [17]: 134%; EC50 [4]: 1.6 nM; Max Geom. Mean MFI @ 100 nM [4]: 39800 MFI
B7 | – | – | – | – | – | – | – | – | – | – | – | – | – | – | – | – | – | – | – | – | Emax, AP1-Luc signal at 100 nM antibody (% of signal without anti-PD-1 antibody) [7]: 163%; Kd [18]: 15.6 nM; koff [18]: 0.00122 s⁻¹; kon [18]: 78400 M⁻¹ s⁻¹; t½ [18]: 9.5 min
B8 | 84 | 163 | 9140 | 96 | 1.11e-08 | 0.348 | 37800 | 78 | 0.2 | 0.082 | 83 | 1.05 | 0.000172 | 163000 | 67 | 40 | 3.17 | 0.000885 | 279000 | 13 | % Blocking [15]: 105%; binding of the mixture (RU) [15]: -5 RU; 500 nM of anti-PD-1 monoclonal antibody (RU) [16]: -5 RU
